From the supplement of paper PMC9170038

These sequences were tested on K4 kissing-loop RNA reporter (assay: apparent KD of K4 kissing-loop reporter; higher = weaker reporter binding). Details: Eterna round: R107; input ligand: theophylline 20 uM.
Protocol: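 RNA-MaP round R107: designed RNA switches with theophylline, tryptophan, arginine or FMN aptamers are transcribed on-chip within common flanks. They are titrated with a labelled K4 kissing-loop RNA reporter in RNA-MaP buffer (100 mM Tris pH 7.5, 80 mM KCl, 4 mM MgCl2), without ligand or with the indicated ligand. Median apparent KD per design.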
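Further: bound reporter read as fluorescence of individual clusters on recovered sequencing chips by microscopy, with normalized cluster intensities fitted with a binding model.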

In order of falling “apparent KD of K4 kissing-loop reporter” value:
1. AAGCAGUCACUCGAAUCCAUCGAAGAUGGGCGAGGACCGGUACGGCCGCCACUCGGAGUGAUGUUCCGCAGACUGCAAAAUAAAA  580 nM
2. ACGCGCGCGAGUGAUGUUCGGAGCGGCUGGCAGGAUAUGUAGCAAUGCAGAAGGGUCGUGGCGCGUCCAGGGUAACCUGGACGCG [#2 Exclusion - FMN A Attempt #26 (HarryS)]  455 nM
3. GGAUAGGAUAGAGGAUAUGGCUUAUGCAGAAAUAACUUAUUGUGUAAAUCCAUAGGGAGUGAUGUUCCAGAAGGCUGUCCUAUCG [MatMod 16 - Jieux - Exclusion - FMN B]  224 nM
4. AAAUAGCUGACGUUGAGUGGGAGCCAGGCACGAGGACCGGUACGGCCGCCACUCGACUAGGUUUUCAGUGAUGUUGAAAAUUUAA [Exclusion Tryptophan A GF 5]  224 nM
5. AAAAUUGCGGUCGAAAGAACUUCUUGCAUACGAGGACCGGUACGGCCGCCACUCGAGUCAAGUGAUGUUUGAUUUUCUAUUAUUA [JR_ExcTryptoA_Sub013]  205 nM
6. UAUUUAAUGUCAGGAUAUCGUAUACGAGUGAUGUUCGUAUUUCUACUAUAGAUUAUUUAAAUUUUUCGAGAAGGGACAAUAUUUA [KL-SSFMN-B4]  186 nM
7. CGAGUCCUGAGGAGUGAUGUUCCUCGGCCACGAGGACCGGUACGGCCGCCACUCGUUACUCGAGCUUAGUAGCUAGCACUAAGCC [Zaussora]  186 nM
8. AGUGAUGUGGGAAGGAGCGGUAUAUGAAUUCAGUGAUGUUGAAGUGAUGCUGUAAUGAUGUGCCAGGUAGGUCGCCUAGAUGUUA [KL-XARG B26]  171 nM
9. UGUAUGUGAUUUGAUACCAGACCAGCUGGUGGUAUAUGAGUGAUGUUCAUGUUGGUGUGGGUCCCUUGGCAGCAAAUCGCAUACU [KL-SSTheoB9]  164 nM
10. UGAUCUCAGUGAUGUUGAGAUCAAACUGAUACCAGUCAAUUUAGUGACCCUUGGCAGCAGUAUACCAAGGGAUCUUAUGAGAUCA [Theo A SS t5]  162 nM
11. GCUAGGCAUGCAGGAUAUCGCCGAGUGAUGUUCGGUAGGCCGCUUUCUUUCUUUCUUUGCGGCCAGCGAGAAGGGCAUGCCUAGC  68 nM

Same assay, conditions: Eterna round: R107; input ligand: tryptophan 2.4 mM

In order of rising “apparent KD of K4 kissing-loop reporter” value:
1. AUUAAUUUCAGAGGAUAUCGUAAUUUUAUUUUAUUUUUUCAUUUAUGCAGUGAUGUUGCAUUUAUUCGAGAAGGCUGAUUUAUAA [JR_SSFMNB_Sub021]  50.7 nM
2. AUACAUGUAAAUCUAUAUGUAUAAUGGAGCCGAGGACCGGUACGGCCGCCACUCGGAGUAAUCGGAGUGAUGUUCCGAAAUGUAC [KL-SSTryp-A sub13]  64.6 nM
3. AAGUACACGAUAGUGUACACCUAGUGAUGUUAGGAUAUGCAGAUAUGCAGAAGGAGCAAGUCAUCUGACAAUAGUCGGAUGACAA [FmnAX 7 #OpenEnded #K4Early]  80.2 nM
4. UGCACGGGCUCGGCCGCCACUCCCGCGGGUCGCAAGGUCCGCUACUGAGUGAUGUUCGGUUGGAGGAGGACCGGGAGCCCGUGCA [#2 Exclusion - Tryptophan B Attempt #27 (HarryS)]  107 nM
5. CGAGUCCUGAGGAGUGAUGUUCCUCGGCCACGAGGACCGGUACGGCCGCCACUCGUUACUCGAGCUUAGUAGCUAGCACUAAGCC [Zaussora]  109 nM
6. AUUUAAUUAACUGAUACCAGACUUAAUGUUUUGUAUAUUACUAGUGAUGUUAGUGAUUCUGUCCCUUGGCAGCAGUAUCUACUUA [JR_ExcTheophyB_Sub014]  117 nM
7. AGACUACUGACAGGAUAUAACAUAUUAGCUCGUAUACCAAAGGUAUACGAGCACCUUCUAGUGAUGUUAGAAGGGUCGGUAGUCA [Omei KL FMN B Exc B v1]  118 nM
8. GCUAGGCAUGCAGGAUAUCGCCGAGUGAUGUUCGGUAGGCCGCUUUCUUUCUUUCUUUGCGGCCAGCGAGAAGGGCAUGCCUAGC  118 nM
9. CCUUCCCUUGAUAGUGAUGUUAUCAAGGACAAGGAUAUCAUCUCAAUGAGAAGGUGUCCUUGAUAACAUGGAGGUCUGAAACAGA [Omei KL FMN A Exc C v2]  139 nM
10. GACUGGAGUGAUGUUCCAUUAACGAUCCUACGAGGACCGGUACGGCCGCCACUCGAAAUGCAGUGAUGUUGCAGCCAGCCGUACU [Exclusion Trptophan A GF 8]  142 nM
11. AUAUGCAGGAGAAGGAGCGUCGUUUCAAGUGAUGUUUGCAAGCGAGCUUACUAUAUAAGACGACAGGUAGGUCGCUCCUGCGUAA [#06 K4 Arginine B Exclusion]  149 nM
12. AAAAUUGCGGUCGAAAGAACUUCUUGCAUACGAGGACCGGUACGGCCGCCACUCGAGUCAAGUGAUGUUUGAUUUUCUAUUAUUA [JR_ExcTryptoA_Sub013]  153 nM
13. UGAUCUCAGUGAUGUUGAGAUCAAACUGAUACCAGUCAAUUUAGUGACCCUUGGCAGCAGUAUACCAAGGGAUCUUAUGAGAUCA [Theo A SS t5]  154 nM
14. UAUUUAAUGUCAGGAUAUCGUAUACGAGUGAUGUUCGUAUUUCUACUAUAGAUUAUUUAAAUUUUUCGAGAAGGGACAAUAUUUA [KL-SSFMN-B4]  158 nM
15. GGGAGUAGUGCGGCCGCCACUGAGAAAGAAGAAGAAUAUAGUGAUGUUAUAUAGGAAUAAAAGAACAGGACCGGGCAUUAGAUUU [SSTRyptB.T]  167 nM
16. GUCUGCGUCUCGGCCGCCACUCACUAGUGAUGUUAGUAAGGAGCGACUAGAGAAGUCCAGUUGAUGAGGACCGGGAGACGCAAAA [Exclusion Tryptophan B GF4]  169 nM
17. UGUAUGUGAUUUGAUACCAGACCAGCUGGUGGUAUAUGAGUGAUGUUCAUGUUGGUGUGGGUCCCUUGGCAGCAAAUCGCAUACU [KL-SSTheoB9]  183 nM
18. AGUGAUGUGGGAAGGAGCGGUAUAUGAAUUCAGUGAUGUUGAAGUGAUGCUGUAAUGAUGUGCCAGGUAGGUCGCCUAGAUGUUA [KL-XARG B26]  187 nM
19. AAAUAGCUGACGUUGAGUGGGAGCCAGGCACGAGGACCGGUACGGCCGCCACUCGACUAGGUUUUCAGUGAUGUUGAAAAUUUAA [Exclusion Tryptophan A GF 5]  194 nM
20. AGUGAUGUGGGAAGGAGCGGUAUAUGAGUUCAGUGAUGUUGAAGUGAUGAUAUAGUGAUGUGCCAGGUAGGUCGCCUAGAUGUUA [KL-XARG-B5]  202 nM
21. GGAUAGGAUAGAGGAUAUGGCUUAUGCAGAAAUAACUUAUUGUGUAAAUCCAUAGGGAGUGAUGUUCCAGAAGGCUGUCCUAUCG [MatMod 16 - Jieux - Exclusion - FMN B]  202 nM
22. AGUGAUGUGGGAAGGAGCGGUUAAUGAAUUCAGUGAUGUUGAAGUGAUGCUGAAAUGAUGUGCCAGGUAGGUCGCCUAGAUGUUA [KL-XARG B28]  203 nM
23. AAAAUAAAUAGCAGUCAUGGAGUGAUGUUCCGAGGACCGGUACGGCCGCCACUCGACCAUCAUAAGAUGGAAUGGCAAGACUGCA [#SwitchBubble 23 #K4Early]  208 nM
24. GGAGAGCGAAAAGGAUAUGCGUCCGUCAAAAUUAUGUAGCGCGGAAAAUGGUAGUGAUGUUGCAAAGCAGAAGGUUUCAGAUGUA [theeternabot_sameState_KL_FMN_B_43]  216 nM
25. AACUGUCAAGGCCAACAUUACUGAGGUGAUACCAGCAUCGAAAGAUGCCCUUGGCAGCACCAACUUGCAGUGAUGUUGCAAGUAA [BrourdMod 13 - Jieux - Exclusion - Theophylline A]  225 nM
26. AGCCAUCACACGGCCGCCACUGAGUAGUGAUGUUGCUUGUAAAUCAGUCACCGCAUUAAUGCCGACAGGACCGGGUGCAUCGAGG [theeternabot_exclusion_KL_Trp_B_17]  247 nM
27. AAUAUAGUGAUGUUAUAUAAGAAGGAGUUACGAGGACCGGUACGGCCGCCACUCGAAACGAGUGAGGGCCCGGGAGAUUGGGCCC [SSTryptA.G]  262 nM
28. CAUGCCAUGAUCCUCCUGGUAUCUCCUGAUACCAGCGUGCUGACACGCCCUUGGCAGCAGGAGUCGAGAGUGAUGUUGUCGAGAA [KL-SSTheo-A9 #analogue]  328 nM
29. AACUGCUAAGAGGUUAAGCACGUCAUUAUGAAGGAUAUAGAAUUCACUAGAAGGUCAUGUGCCCUGAGUGAUGUUCAGAUAGGCG [theeternabot_sameState_KL_FMN_A_25]  336 nM
30. GAUUGGCGGACGGCCGCCACUCGGACGAGUCACAGUGAUGUUGUGGUUUGCCAGUCGACUUCAUCGAGGACCGGGUUUGUCGGGC [Exclusion Tryptophan B GF 21]  349 nM
31. AGGAUGUAGUGAUGUUAUAUAAGAAGUAAACGAGGACCGGUACGGCCGCCACUCGAAGCGGCUACUAGCGCGCCGCGAGGCGCGC [ExTryptoA.Cb]  358 nM
32. ACCAUCAAAGAUGGCCAGGACACCGCUGAUACCAGAGUGAAAACACUCCCUUGGCAGCAGGUGAGUGAUGUUCACAGUCCAUGGA [Omel KL Theo A SS B v2]  361 nM
33. GCCAUCUACUAAGGAUAUUAAGUCAAUAUUUGUGGUGCCAUCUGUCGUUCAGGGCAGUGAUGUUGCUAAGAAGGUAGUCUGUCGG [theeternabot_exclusion_KL_FMN_B_39]  407 nM
34. AGCAAUAUCACGGCCGCCACUGAAUAUUGUUUUUAUAGUUAUAAAUCUUGCCAGUGAUGUUGGUUCAGGACCGGGUGAGUUAAUA [JR_SSTryptoB_Sub003]  429 nM
35. AAGCAGUCACUCGAAUCCAUCGAAGAUGGGCGAGGACCGGUACGGCCGCCACUCGGAGUGAUGUUCCGCAGACUGCAAAAUAAAA  478 nM
36. UUUAAAUAUAGUGAUGUUAUAUAACAAUGACGAGGACCGGUACGGCCGCCACUCGAGAGAGAUAAUGGUCUUACAAAUGUAAGUU [AstrosSSTryA#9]  481 nM
37. GGUGUUGUUUGUGCUGUUUUCCUCGUUCCUCGAGGACCGGUACGGCCGCCACUCGAGUGAUGUUUGGGUAGCGAUCCCUGUUAGU [Bdazzled - #8 Exc. Tryptophan A]  593 nM
38. ACGCGCGCGAGUGAUGUUCGGAGCGGCUGGCAGGAUAUGUAGCAAUGCAGAAGGGUCGUGGCGCGUCCAGGGUAACCUGGACGCG [#2 Exclusion - FMN A Attempt #26 (HarryS)]  719 nM
39. CGAUGUUCCUGGGAUACCAGUCGGAGUCUCAGAGCUCGGAGUGAUGUUCUGGGAUGUUUCGGCCCUUGGCAGCUCUGGGACUCCC [#2 Exclusion - Theophylline B Attempt #23 (HarryS)]  722 nM
40. UGUGAGCUGUCGACAAAAGUCGACUAAAAUGAGGAUAUGACGAAAGUCAGAAGGCAUCAAUAAUGGAGUGAUGUUCCUGCUCACU [FmnA 9 U30+A56]  763 nM
41. GGAGUUACCUGGGAUACCAGUCGGAGUCCCAGAGCUCGGAGUGAUGUUCUGGGAUGUUUCGGCCCUUGGCAGCUCUGGGACUCCC [#2 Exclusion - Theophylline B Attempt #9 (HarryS)]  780 nM
42. CGUGCCCAGCCGGAUACCAGUGACCCGCUGGGAACCGCGGGCCCAGAGUGAUGUUCGGGACACCCUUGGCAGCCGCCUGGGCGGC [#2 Same State - Theophylline B Attempt #12 (HarryS)]  1250 nM
